The values that follow come from patent publication US20250163162A1 (SYNTHEKINE, published 2025).

The target in assay [1] is T1, cIL2Rg-Fc (lot#P210115SV5) (cynomolgus, UniProt A0A2K5VGJ6 23-262).
T1 construct: Named only by lot number; also called cynomolgus IL2Rg-Fc; not shown: Fc of the fusion protein
T1 sequence: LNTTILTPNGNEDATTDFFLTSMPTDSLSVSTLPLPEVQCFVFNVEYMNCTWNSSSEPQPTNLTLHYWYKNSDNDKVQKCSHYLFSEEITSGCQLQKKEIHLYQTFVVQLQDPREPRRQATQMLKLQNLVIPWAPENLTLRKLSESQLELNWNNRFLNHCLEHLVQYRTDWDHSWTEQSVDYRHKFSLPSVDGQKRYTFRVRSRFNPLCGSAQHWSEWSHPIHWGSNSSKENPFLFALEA
In words: SPR (Biacore T200), Fc-fused ligand captured on chip, dual VHH as analyte, 1:1 Langmuir fit. The method, then: (§1) All experiments were conducted in 10 mM Hepes, 150 mM NaCl, 0.05% (v/v) Polysorbate 20 (PS20) and 3 mM EDTA (HBS-EP+ buffer) on a Biacore T200 instrument equipped with Protein A or CAP biotin chips (Cytiva). For experiments on Protein A chips, Fc-fused ligands were flowed at 5 μl/min for variable time ranging from 18 to 300 seconds, reaching the capture loads listed in the tables below. Following ligand capture, injections of a 2-fold dilution series of analyte typically comprising at least five concentrations between 1 μM and 1 nM were performed in either high performance or single cycle kinetics mode. Surface regeneration was achieved by flowing 10 mM glycine-HCl, pH 1.5 (60 seconds, […]). Buffer-subtracted sensograms were processed with Biacore T200 Evaluation Software and globally fit with a 1:1 Langmuir binding model (bulk shift set to zero) to extract kinetics and affinity constants (kₐ, kd, KD). RMAX<100 RU indicates surface density compatible with kinetics analysis. Experiments on CAP chips were performed as described above with an additional capture step of Biotin CAPture reagent (10 seconds, 40 uL/min) performed prior to capture of biotinylated ligands. Calculated Rmax were generated using the equation Rmax=Load (RU) x valency of ligand x (Molecular weight of analyte/Molecular weight of ligand. Surface activity was defined as the ratio experimental/calculated Rmax. The results of these experiments are provided in below for sample information and experimental results.
(Surface plasmon resonance follows binding to a sensor surface in real time, without labels.)

The target in assay [2] is T2, hIL2Rg-Fc (SinoBiological cat#10555) (human, UniProt P31785 23-254, limits assumed).
T2 construct: Bought Fc fusion (SinoBiological cat#10555); P31785 is printed for hCD132 in the background; also called human IL2Rg-Fc; not shown: Fc of the bought fusion protein
T2 sequence (looked up): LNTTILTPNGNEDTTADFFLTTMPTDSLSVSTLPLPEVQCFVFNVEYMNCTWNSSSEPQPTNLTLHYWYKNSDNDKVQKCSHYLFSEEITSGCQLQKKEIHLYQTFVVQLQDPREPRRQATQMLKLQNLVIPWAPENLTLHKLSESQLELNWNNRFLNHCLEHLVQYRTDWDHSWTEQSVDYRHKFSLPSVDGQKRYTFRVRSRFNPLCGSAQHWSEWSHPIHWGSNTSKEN
The assay is described as above. As to the method: as §1

In assay [3] the target is T1, cIL2Rg-Fc (lot#P210115SV5). In words: SPR (Biacore T200); ratio experimental/calculated Rmax.
Assay [4] has as its target T2, hIL2Rg-Fc (SinoBiological cat#10555). Described as above.

B1: DR466(DR240-DR232) (bispecific antibody)
chain: QVQLQESGGGSVQAGGSLRLSCGASGYTYSSYCMGWFRQVPGKEREGVAVIDSDGSTSYADSVKGRFTISKDNGKNTLYLQMNSLKPEDTAMYYCAADLGHYRPPCGVLYLGMDYWGKGTQVTVSSGGGSQVQLQESGGGSVQAGGSLRLSCVASGYTSCMGWFRQAPGKEREAVATIYTRGRSIYYADSVKGRFTISQDNAKNTLYLQMNSLKPEDIAMYSCAAGGYSWSAGCEFNYWGQGTQVTVSSASHHHHHH
notes: Anti-hIL10Ra/hIL2Rg dual VHH with ASH6 handle; also called H7
In general, Kd refers to the equilibrium constant for the complex coming apart. Low values mean a tighter complex, high ones a looser complex. The term koff denotes the first-order rate constant of dissociation. Low values mean slow dissociation, high ones fast dissociation. Usually kon stands for a measure of how fast the partners come together. A higher kon goes with fast association. Regarding B1, the Kd stood at 49.9 nM in assay [1] and 20.8 nM in assay [2]. Moreover, the koff in assay [1] is 0.0037 s⁻¹; in assay [2], 0.026 s⁻¹. For the same molecule, the kon in assay [1] stood at 75000 M⁻¹ s⁻¹; in assay [2] it was 1.2e+06 M⁻¹ s⁻¹. In addition, the figures for the “Surface Activity” value in assay [3] and in assay [4] were 9% and 6%, respectively.

B2: DR392(DR229-DR236) (bispecific antibody)
chain: QVQLQESGGGLVQPGGSLRLSCTASGFSFSSYPMTWARQAPGKGLEWVSTIASDGGSTAYAASVEGRFTISRDNAKSTLYLQLNSLKTEDTAMYYCTKGYGDGTPAPGQGTQVTVSSGGGSQVQLQESGGGSVQAGGSLRLSCAASRFTYSSYCMGWFRQAPGKEREGVASIDSDGSTSYTDSVKGRFTISKDNAKNTLYLQMNSLKPEDTAMYYCALDLMSTVVPGFCGFLLSAGMDYWGKGTQVTVSSASHHHHHH
notes: Anti-hIL10Ra/hIL2Rg dual VHH with ASH6 handle; also called A7
Consider B2, for which the results for the Kd in assay [1] and in assay [2] were 2.4 nM and 3.6 nM, respectively. Also, the koff in assay [1] was determined as 0.004 s⁻¹; in assay [2] it was 0.0062 s⁻¹. The kon in assay [1] came to 1.6e+06 M⁻¹ s⁻¹; in assay [2], 1.7e+06 M⁻¹ s⁻¹. The “Surface Activity” value is 1% in assay [3] and 4% in assay [4].

B3: DR438(DR235-DR234) (bispecific antibody)
chain: QVQLQESGGGSVQAGGSLRLSCAASRYLYSIDYMAWFRQSPGKEREPVAVIYTASGATFYPDSVKGRFTISQDNAKMTVYLQMNSLKSEDTAMYYCAAVRKTDSYLFDAQSFTYWGQGTQVTVSSGGGSQVQLQESGGGSVQAGGSLRLSCVASGYTFSSYCMGWFRQAPGKEREGVAALGGGSTYYADSVKGRFTISQDNAKNTLYLQMNSLKPEDTAMYYCAAAWVACLEFGGSWYDLARYKHWGQGTQVTVSSASHHHHHH
notes: Anti-hIL10Ra/hIL2Rg dual VHH with ASH6 handle; also called D12
In assay [1], B3 showed an equilibrium dissociation constant (Kd) of 2.2 nM, a koff of 0.0012 s⁻¹ and a kon of 560000 M⁻¹ s⁻¹. Besides, in assay [2], binding was characterised by a dissociation constant (Kd) of 2.7 nM, the off-rate (koff) worked out at 0.001 s⁻¹ and the kon stood at 390000 M⁻¹ s⁻¹. In assay [3], the “Surface Activity” value is 1%. In assay [4], the “Surface Activity” value is 5%.

B4: DR437(DR235-DR233) (bispecific antibody)
chain: QVQLQESGGGSVQAGGSLRLSCAASRYLYSIDYMAWFRQSPGKEREPVAVIYTASGATFYPDSVKGRFTISQDNAKMTVYLQMNSLKSEDTAMYYCAAVRKTDSYLFDAQSFTYWGQGTQVTVSSGGGSQVQLQESGGGSVQAGGSLRLSCTASGFTFDDSDMGWYRQAPGNECELVSTISSDGSTYYADSVKGRFTISQDNAKNTVYLQMNSLKPEDTAVYYCAAEPRGYYSNYGGRRECNYWGQGTQVTVSSASHHHHHH
notes: Anti-hIL10Ra/hIL2Rg dual VHH with ASH6 handle; also called D6
As to B4, the figures for the dissociation constant Kd in assay [1] and in assay [2] were 7.8 nM and 27.5 nM, respectively. For the same molecule, the koff in assay [1] is 0.0022 s⁻¹; in assay [2], 0.0051 s⁻¹. Also, the figures for the kon in assay [1] and in assay [2] were 290000 M⁻¹ s⁻¹ and 190000 M⁻¹ s⁻¹, respectively. Moreover, the “Surface Activity” value is 1% in assay [3] and 3% in assay [4].

B5: DR474(DR241-DR234) (bispecific antibody)
chain: QVQLQESGGGSVQAGGSLRLSCAASGYSNCSYDMTWYRQAPGKEREFVSAIHSDGSTRYADSVKGRFFISQDNAKNTVYLQMNSLKPEDTAMYYCKTDPLHCRAHGGSWYSVRANYWGQGTQVTVSSGGGSQVQLQESGGGSVQAGGSLRLSCVASGYTFSSYCMGWFRQAPGKEREGVAALGGGSTYYADSVKGRFTISQDNAKNTLYLQMNSLKPEDTAMYYCAAAWVACLEFGGSWYDLARYKHWGQGTQVTVSSASHHHHHH
notes: Anti-hIL10Ra/hIL2Rg dual VHH with ASH6 handle; also called H9
As to B5, the Kd in assay [1] amounted to 2.9 nM; in assay [2], 3.2 nM. Besides, the results for the koff in assay [1] and in assay [2] were 0.00093 s⁻¹ and 0.00099 s⁻¹, respectively. The results for the on-rate constant (kon) in assay [1] and in assay [2] were 330000 M⁻¹ s⁻¹ and 310000 M⁻¹ s⁻¹, respectively. The figures for the “Surface Activity” value in assay [3] and in assay [4] were 2% and 6%, respectively.
